This note sets out measurements from patent US20050181450A1 (published 2005).

To fix the notation:
B4: IRBIT (IP3R-binding protein released with inositol 1,4,5-trisphosphate) in the high salt extract of mouse cerebellar crude microsome (other)
chain: SMPDAMPLPGVGEELKQAKEIEDAEKYSFMATVTKAPKKQIQFADDMQEFTKFPTKTGRRSLSRSISQSSTDSYSSAASYTDSSDDEVSPREKQQTNSKGSSNFCVKNIKQAEFGRREIEIAEQDMSALISLRKRAQGEKPLAGAKIVGCTHITAQTAVLIETLCALGAQCRWSACNIYSTQNEVAAALAEAGVAVFAWKGESEDDFWWCIDRCVNMDGWQANMILDDGGDLTHWVYKKYPNVFKKIRGIVEESVTGVHRLYQLSKAGKLCVPAMNVNDSVTKQKFDNLYCCRESILDGLKRTTDVMFGGKQVVVCGYGEVGKGCCAALKALGAIVYITEIDPICALQACMDGFRVVKLNEVIRQVDVVITCTGNKNVVTREHLDRMKNSCIVCNMGHSNTEIDVTSLRTPELTWERVRSQVDHVIWPDGKRVVLLAEGRLLNLSCSTVPTFVLSITATTQALALIELYNAPEGRYKQDVYLLPKKMDEYVASLHLPSFDAHLTELTDDQAKYLGLNKNGPFKPNYYRY
notes: Endogenous protein extracted with 500 mM NaCl from crude microsome of mouse cerebellum, not purified; sites not determined; also called IRBIT in the high salt extract

The target in assay [1] is B4. The assay is described as follows: GST pulldown from high salt extract, Western blot with anti-IRBIT antibody. From the text:
(§1) FIG. 9A is the schematic representation of the structure of mouse IP₃R1 and the recombinant GST fusion proteins used in this study. The IP₃ binding core region is indicated with a gray box. Putative membrane-spanning regions are indicated with solid vertical bars. Roman numbers I to V indicate the domain structure of IP₃R1 determined by the limited trypsin digestion (51). Numbers above the bars represent corresponding amino acid residue numbers. […] The high salt extract of crude microsome obtained from mouse cerebella was incubated with GST fusion proteins shown in (A). Bound proteins were pulled down with glutathione-Sepharose, eluted with glutathione, and analyzed by Western blotting using anti-IRBIT antibody. […] Bound proteins were pulled down with glutathione-Sepharose, eluted with glutathione, and then analyzed by Western blotting using anti-IRBIT antibody (upper panel). GST fusion proteins pulled down with glutathione-Sepharose were stained with Coomassie Brilliant Blue (lower panel).
(§2) For the determination of the IRBIT binding region and the critical amino acid residue of IP₃R1, the diluted high salt extract was subjected to pulldown assay as described above with 100 pmol of GST, GST-EL, GST-Ia, GST-Iab, GST-IbIIa, GST-IIab, GST-IIbIIIa, GST-IIIab, GST-IV, GST-IV-Va, K508A or R441Q, and analyzed by Western blotting with anti-IRBIT antibody.

Assay [2] has as its target B4. Kind of assay: GST pulldown from the high salt extract, Western blot with anti-IRBIT antibody.
Text: as §1, §2
(In general: Immunoblotting shows a protein as a band on a membrane.)

Assay [3] addresses GST-EL (GST-IP3R1 (1-2217), GST fusion of the N-terminal 2217 amino acid residues of mouse IP3R1) (mouse, UniProt P11881 1-2217). Kind of assay: cell-based or functional assay.
For assay [4], the target named is T1, GST-IIab (GST fusion of amino acids 341-923 of mouse IP3R1) (mouse, UniProt P11881 341-923).
T1 construct: Expressed in Escherichia coli; not shown: glutathione S-transferase (GST) tag of vector pGEX-KG
The assay is described as follows: GST pulldown from high salt extract, Western blot with anti-IRBIT antibody.
Text: as §1, §2

Assay [5] has as its target T2, GST-IIbIIIa (GST fusion of amino acids 600-1248 of mouse IP3R1) (mouse, UniProt P11881 600-1248).
T2 construct: Expressed in Escherichia coli; not shown: glutathione S-transferase (GST) tag of vector pGEX-KG
Kind of assay: GST pulldown from the high salt extract, Western blot with anti-IRBIT antibody.
Text: as §1, §2

Assay [6] deals with T3, GST-IIIab (GST fusion of amino acids 916-1581 of mouse IP3R1) (mouse, UniProt P11881 916-1581).
T3 construct: Expressed in Escherichia coli; not shown: glutathione S-transferase (GST) tag of vector pGEX-KG
T3 sequence (P11881 916-1581 N1264K): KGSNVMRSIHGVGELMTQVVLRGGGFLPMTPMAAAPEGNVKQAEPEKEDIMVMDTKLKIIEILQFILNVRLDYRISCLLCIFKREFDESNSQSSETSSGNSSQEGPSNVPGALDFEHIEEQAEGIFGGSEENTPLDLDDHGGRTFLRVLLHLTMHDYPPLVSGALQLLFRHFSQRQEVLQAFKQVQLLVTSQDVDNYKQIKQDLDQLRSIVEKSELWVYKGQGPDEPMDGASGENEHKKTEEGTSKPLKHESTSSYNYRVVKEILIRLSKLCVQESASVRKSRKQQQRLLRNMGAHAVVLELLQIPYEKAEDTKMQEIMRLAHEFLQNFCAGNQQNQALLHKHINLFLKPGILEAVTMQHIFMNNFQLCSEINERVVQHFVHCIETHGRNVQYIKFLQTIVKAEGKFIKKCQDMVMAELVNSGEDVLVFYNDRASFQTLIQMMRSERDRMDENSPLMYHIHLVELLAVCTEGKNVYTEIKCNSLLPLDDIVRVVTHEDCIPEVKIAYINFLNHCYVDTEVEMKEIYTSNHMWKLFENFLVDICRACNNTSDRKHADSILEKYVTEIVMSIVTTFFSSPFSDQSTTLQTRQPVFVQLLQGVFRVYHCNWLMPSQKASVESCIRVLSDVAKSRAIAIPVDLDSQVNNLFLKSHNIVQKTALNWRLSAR
The description is as above.
Text: as §1, §2

Assay [7] deals with T4, GST-IV-Va (GST fusion of amino acids 1593-2217 of mouse IP3R1) (mouse, UniProt P11881 1593-2217).
T4 construct: Expressed in Escherichia coli; not shown: glutathione S-transferase (GST) tag of vector pGEX-4T-1
T4 sequence (P11881 1593-2217): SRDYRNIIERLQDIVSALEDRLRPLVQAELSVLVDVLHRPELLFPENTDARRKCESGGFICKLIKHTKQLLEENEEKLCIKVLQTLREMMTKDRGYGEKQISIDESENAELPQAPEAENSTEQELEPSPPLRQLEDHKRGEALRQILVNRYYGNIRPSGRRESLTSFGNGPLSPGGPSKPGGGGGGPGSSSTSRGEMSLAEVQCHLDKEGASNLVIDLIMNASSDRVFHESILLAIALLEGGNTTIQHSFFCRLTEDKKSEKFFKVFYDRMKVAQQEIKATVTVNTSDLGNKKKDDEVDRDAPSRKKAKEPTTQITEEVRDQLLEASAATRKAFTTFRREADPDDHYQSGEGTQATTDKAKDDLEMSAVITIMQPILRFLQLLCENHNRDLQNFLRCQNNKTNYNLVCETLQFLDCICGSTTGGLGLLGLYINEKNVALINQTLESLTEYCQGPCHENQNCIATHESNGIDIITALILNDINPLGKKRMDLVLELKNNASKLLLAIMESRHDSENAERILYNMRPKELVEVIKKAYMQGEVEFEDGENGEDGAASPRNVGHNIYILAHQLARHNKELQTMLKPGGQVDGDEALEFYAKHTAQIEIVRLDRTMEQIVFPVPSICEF
The description is as above.
Text: as §1, §2

T2 sequence (P11881 600-1248): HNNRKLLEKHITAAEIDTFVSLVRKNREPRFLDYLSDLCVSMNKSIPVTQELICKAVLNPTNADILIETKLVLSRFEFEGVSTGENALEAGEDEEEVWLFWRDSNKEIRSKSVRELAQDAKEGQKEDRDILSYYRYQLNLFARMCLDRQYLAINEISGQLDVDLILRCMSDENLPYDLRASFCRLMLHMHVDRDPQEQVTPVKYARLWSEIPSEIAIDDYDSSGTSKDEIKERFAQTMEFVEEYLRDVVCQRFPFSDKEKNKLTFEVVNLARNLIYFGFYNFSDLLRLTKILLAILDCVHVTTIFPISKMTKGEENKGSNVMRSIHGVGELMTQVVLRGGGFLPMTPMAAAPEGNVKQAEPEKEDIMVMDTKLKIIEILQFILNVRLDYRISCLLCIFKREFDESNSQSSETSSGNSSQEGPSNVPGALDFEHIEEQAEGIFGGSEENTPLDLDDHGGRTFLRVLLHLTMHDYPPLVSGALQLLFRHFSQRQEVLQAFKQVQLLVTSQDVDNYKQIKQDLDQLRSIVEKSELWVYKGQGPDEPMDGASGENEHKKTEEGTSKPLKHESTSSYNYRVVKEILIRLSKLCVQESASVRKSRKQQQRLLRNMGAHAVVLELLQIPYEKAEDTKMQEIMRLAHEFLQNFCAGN
Sequence of GST-EL (GST-IP3R1 (1-2217), GST fusion of the N-terminal 2217 amino acid residues of mouse IP3R1) (P11881 1-2217 N1264K): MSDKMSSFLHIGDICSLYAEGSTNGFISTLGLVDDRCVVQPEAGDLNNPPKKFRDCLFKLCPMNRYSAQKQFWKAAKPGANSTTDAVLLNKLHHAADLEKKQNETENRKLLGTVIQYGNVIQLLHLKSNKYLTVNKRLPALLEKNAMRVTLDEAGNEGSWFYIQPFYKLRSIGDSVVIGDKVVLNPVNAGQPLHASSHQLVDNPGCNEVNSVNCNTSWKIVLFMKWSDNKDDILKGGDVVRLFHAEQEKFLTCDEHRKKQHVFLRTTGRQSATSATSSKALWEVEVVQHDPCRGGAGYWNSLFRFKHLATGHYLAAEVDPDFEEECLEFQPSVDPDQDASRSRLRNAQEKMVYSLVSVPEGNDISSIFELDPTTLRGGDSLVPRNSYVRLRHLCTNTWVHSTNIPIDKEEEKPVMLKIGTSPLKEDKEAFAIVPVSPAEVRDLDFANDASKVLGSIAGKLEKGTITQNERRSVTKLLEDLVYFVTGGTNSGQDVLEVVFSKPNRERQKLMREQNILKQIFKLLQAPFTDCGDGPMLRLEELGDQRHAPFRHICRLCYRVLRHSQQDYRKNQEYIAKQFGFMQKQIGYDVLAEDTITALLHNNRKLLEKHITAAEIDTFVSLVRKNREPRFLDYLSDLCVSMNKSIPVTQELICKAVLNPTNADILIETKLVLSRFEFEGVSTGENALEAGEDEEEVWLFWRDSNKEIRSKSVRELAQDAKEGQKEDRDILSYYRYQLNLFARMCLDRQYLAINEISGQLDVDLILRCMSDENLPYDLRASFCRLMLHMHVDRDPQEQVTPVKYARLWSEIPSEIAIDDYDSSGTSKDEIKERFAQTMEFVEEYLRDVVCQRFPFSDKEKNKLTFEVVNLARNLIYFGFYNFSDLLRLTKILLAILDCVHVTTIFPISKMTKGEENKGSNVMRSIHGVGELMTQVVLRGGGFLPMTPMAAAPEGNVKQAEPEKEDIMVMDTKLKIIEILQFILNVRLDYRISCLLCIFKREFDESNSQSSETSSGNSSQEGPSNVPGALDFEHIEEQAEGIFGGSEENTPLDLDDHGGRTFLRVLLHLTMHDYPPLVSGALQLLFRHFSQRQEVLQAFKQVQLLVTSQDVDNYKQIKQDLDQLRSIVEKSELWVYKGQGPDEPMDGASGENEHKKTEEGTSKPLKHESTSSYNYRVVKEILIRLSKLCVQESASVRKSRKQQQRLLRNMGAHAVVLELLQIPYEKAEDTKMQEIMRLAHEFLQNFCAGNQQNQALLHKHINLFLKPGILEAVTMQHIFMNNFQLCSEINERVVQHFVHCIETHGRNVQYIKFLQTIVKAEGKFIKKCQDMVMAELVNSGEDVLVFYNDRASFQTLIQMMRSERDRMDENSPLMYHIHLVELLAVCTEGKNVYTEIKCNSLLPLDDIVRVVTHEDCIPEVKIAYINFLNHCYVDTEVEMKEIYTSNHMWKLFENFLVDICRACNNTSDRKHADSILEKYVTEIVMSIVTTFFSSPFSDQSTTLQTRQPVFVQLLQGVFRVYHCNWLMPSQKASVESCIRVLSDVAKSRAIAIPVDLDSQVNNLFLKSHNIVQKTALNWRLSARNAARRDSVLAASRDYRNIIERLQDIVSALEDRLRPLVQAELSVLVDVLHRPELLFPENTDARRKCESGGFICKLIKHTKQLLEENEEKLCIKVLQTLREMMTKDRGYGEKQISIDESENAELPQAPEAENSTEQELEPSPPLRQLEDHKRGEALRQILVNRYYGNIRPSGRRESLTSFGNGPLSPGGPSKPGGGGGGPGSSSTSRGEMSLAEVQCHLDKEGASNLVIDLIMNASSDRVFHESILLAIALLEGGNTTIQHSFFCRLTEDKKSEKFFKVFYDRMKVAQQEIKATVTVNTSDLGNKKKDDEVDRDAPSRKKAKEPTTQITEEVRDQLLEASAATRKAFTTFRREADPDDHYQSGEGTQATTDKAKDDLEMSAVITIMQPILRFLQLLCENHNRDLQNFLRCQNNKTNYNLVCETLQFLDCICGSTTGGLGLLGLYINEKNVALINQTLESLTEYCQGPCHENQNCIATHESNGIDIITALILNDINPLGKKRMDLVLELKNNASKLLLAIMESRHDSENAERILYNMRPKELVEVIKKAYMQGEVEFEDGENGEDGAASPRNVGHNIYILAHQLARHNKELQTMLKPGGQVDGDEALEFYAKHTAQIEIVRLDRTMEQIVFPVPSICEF

B1: GST-Iab (GST fusion of amino acids 1-343 of mouse IP3R1) (receptor)
chain: not shown
notes: Expressed in Escherichia coli; not shown: glutathione S-transferase (GST) tag of vector pGEX-KG
For B1, the binding result in assay [1] was “no binding (tested: 100 pmol of GST fusion protein)”.

B2: K508A (site-directed mutant of GST-IbIIa, lysine 508 of IP3R1 substituted with alanine) (receptor)
chain: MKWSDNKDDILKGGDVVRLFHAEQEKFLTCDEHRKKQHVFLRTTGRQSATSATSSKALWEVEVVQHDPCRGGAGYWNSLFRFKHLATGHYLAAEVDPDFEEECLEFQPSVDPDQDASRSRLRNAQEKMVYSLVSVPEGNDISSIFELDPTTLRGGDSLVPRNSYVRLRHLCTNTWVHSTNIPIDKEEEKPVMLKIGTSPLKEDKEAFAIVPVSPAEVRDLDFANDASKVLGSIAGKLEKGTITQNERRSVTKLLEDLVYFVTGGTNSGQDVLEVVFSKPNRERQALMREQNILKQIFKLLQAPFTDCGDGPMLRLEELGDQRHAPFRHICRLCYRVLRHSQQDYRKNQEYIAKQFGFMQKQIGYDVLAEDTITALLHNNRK
notes: not shown: The GST carrier at the N end and its vector linker
On to B2, for which, in assay [1], the binding result is recorded as “no binding (tested: 100 pmol of GST fusion protein)”.

B3: GST-IV (GST fusion of amino acids 1553-1943 of mouse IP3R1) (receptor)
chain: DLDSQVNNLFLKSHNIVQKTALNWRLSARNAARRDSVLAASRDYRNIIERLQDIVSALEDRLRPLVQAELSVLVDVLHRPELLFPENTDARRKCESGGFICKLIKHTKQLLEENEEKLCIKVLQTLREMMTKDRGYGEKQISIDESENAELPQAPEAENSTEQELEPSPPLRQLEDHKRGEALRQILVNRYYGNIRPSGRRESLTSFGNGPLSPGGPSKPGGGGGGPGSSSTSRGEMSLAEVQCHLDKEGASNLVIDLIMNASSDRVFHESILLAIALLEGGNTTIQHSFFCRLTEDKKSEKFFKVFYDRMKVAQQEIKATVTVNTSDLGNKKKDDEVDRDAPSRKKAKEPTTQITEEVRDQLLEASAATRKAFTTFRREADPDDHYQSGE
notes: as for B1
As for B3, the binding result in assay [2] is reported as “no binding (tested: 100 pmol GST fusion protein)”.

In the case of B4, the “EC50 (IP3 concentration required for half (50%)-maximal dissociation of IRBIT from GST-EL)” value in assay [3] is approximately 500 nM. For the same molecule, the binding result in assay [4] is “no binding (tested: 100 pmol of GST fusion protein)”; in assay [5], “no binding (tested: 100 pmol GST fusion protein)”; in assay [6], “no binding (tested: 100 pmol GST fusion protein)”; in assay [7] it was “no binding (tested: 100 pmol GST fusion protein)”.

B5: GST-Ia (GST fusion of amino acids 1-225 of mouse IP3R1) (receptor)
chain: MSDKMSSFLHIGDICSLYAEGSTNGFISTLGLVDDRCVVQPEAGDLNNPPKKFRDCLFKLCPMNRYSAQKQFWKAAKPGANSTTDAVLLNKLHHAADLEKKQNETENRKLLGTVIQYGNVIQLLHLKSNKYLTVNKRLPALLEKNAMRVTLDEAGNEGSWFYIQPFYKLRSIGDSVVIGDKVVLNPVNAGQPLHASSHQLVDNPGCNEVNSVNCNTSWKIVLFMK
notes: as for B1
As to B5, the binding result in assay [2] was “no binding (tested: 100 pmol GST fusion protein)”.
